Data on 2 substances can be found in PMC12145522.

A word on the Kd: it is the constant that tells how readily two partners part at equilibrium. Read a low Kd as a tighter complex.

In test [1] the target is GST tagged TrpR2 (Pseudomonas syringae pv. actinidiae M228). Briefly: MST.
The target in test [2] is RNAP-HrpL holoenzyme (His-tagged) (Pseudomonas syringae pv. actinidiae | not stated) (UniProt P37929). Nature of the test: MST; RNAP-HrpL holoenzyme labelled with RED-Tris-NTA, 50 nM, titrated with GST-TrpR2 from 0.38 nM to 25 μM; MST buffer; 25℃; Monolith NT.115, medium MST power, 90 % LED power; triplicate.
Sequence of UniProt P37929 (P37929 whole entry, looked up): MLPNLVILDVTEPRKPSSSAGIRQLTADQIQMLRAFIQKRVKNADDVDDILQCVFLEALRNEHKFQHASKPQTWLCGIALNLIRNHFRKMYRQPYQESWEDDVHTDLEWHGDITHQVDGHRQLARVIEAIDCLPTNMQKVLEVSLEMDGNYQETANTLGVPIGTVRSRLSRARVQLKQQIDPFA

Substance RNAP-His yielded a dissociation constant Kd in test [1] of 7.75 µM.

With GST tagged TrpR2 (natural protein), the Kd in test [2] is 2.41 µM.
